From publication PMC4698733 (2016)

B1: MEIG1 wild type, two-hybrid fusion from MEIG1/pGBKT7 [mouse] / Parkin co-regulated gene protein (PACRG), two-hybrid fusion from PACRG/pGADT7 [mouse] (parent complex)
chain 1: MATSDVKPKSISRAKKWSEEIENLYRFQQAGYRDEIEYKQVKQVAMVDRWPETGYVKKLQRRDNTFFYYNKERECEDKEVHKVKVYVY
chain 2: not shown

Variants of: B1
Assay: yeast two-hybrid, α-galactosidase activity; Yeast strain AH109 co-transformed with PACRG/pGADT7 and MEIG1/pGBKT7 plasmids; parent: 65; read off a plot

chain 1 K9E and chain 1 V87A are the same in response: ~72 for the first, ~72 for the second.

Going from chain 1 F66A to chain 1 W50A, the response falls from ~15 to ~10.

Compared with chain 1 R62E, chain 1 R13E is higher in response: ~67 for the first, ~81 for the second.

Going from chain 1 E20R to chain 1 H81A, the response rises from ~72 to ~85.

Compared with chain 1 Y68A, chain 1 Y25A is higher in response: ~5 for the first, ~58 for the second.

First: chain 1 K57E
Second: chain 1 I36A
The response of the first is lower: ~22 for the first, ~67 for the second.

Variants of: B1
Assay: yeast two-hybrid, α-galactosidase activity; Yeast strain AH109 co-transformed with PACRG/pGADT7 and MEIG1/pGBKT7 plasmids; parent: 64; read off a plot

Going from chain 1 W50A to chain 1 W50A, chain 1 Y68A, the response falls from ~12 to ~2.2.

chain 1 Y68A gave a response of ~3.3.
